Source: patent publication US8415306B2, “Insulin-like growth factor 1 receptor binding peptides” (Janssen Biotech, Inc., priority 2010, dated 2013)

Legend:
[1] = test system: rat brain microvascular endothelial cell model; assay: in vitro BBB model, transcytosis of peptide-AP fusions; format: cell-based; settings: 25 μg peptide-AP fusion in top chamber, detected in bottom chamber at 15 and 30 minute by ELISA
Method: Select sIGF1R binding peptides were further characterized in the in vitro blood-brain barrier model, rat brain microvascular endothelial cell model.
Rat Brain capillary endothelial cells were prepared as described (Perriere et al., J. Neurochem. 93:279-289, 2005). Briefly, brains from 6-8 week old male Sprague Dawley rats were rolled on 3 MM chromatography paper to remove the meniges, cut sagitally, and the white matter dissected leaving the cortices, which were then minced thoroughly. The minced cortices were transferred to a 50 ml polypropylene conical tube with 20 ml DMEM supplemented with 39 units/ml DNase I (Worthington, Lakewood, N.J.) and 0.7 mg/ml Collagenase type 2 (Worthington, Lakewood, N.J.) at final concentration and incubated at 37° C. with gentle mixing for 1.25 hrs. After a brief centrifugation the resultant pellet was resuspended in 20 ml 20% BSA (Sigma, St. Louis, Mo.) in DMEM, centrifuged and the microvessel enriched pellet was isolated a digested a second time with 20 ml DMEM supplemented with 39 units/ml DNase 1 and 1 mg/ml Collagenase/Dispase (Roche, Indianapolis, Ind.) at 37° C. for 1 hr. The digestion was briefly centrifuged and the resulting cell pellet was resuspended in 2 ml DMEM and subsequently layered onto the top of a 33% continuous Percoll gradient, centrifuged, and the enriched microvessel fraction was removed and briefly centrifuged a second time. The cell pellet was resuspended in 10 ml complete rat brain microvascular endothelial cell growth media (DMEM, 20% Plasma Derived Serum (PDS), 100 μg/ml Heparin, 2 mM L-Glutamine, 100 U/ml penicillin, 100 μg/ml streptomycin, 0.25 μg/ml amphotericin) and plated onto a 10 cm tissue culture dish for 4 hrs at 37° C., 5% CO2. After 4 hrs cells that remained unattached were pipetted off and counted in a hemacytometer using Trypan Blue. The cells were plated into the top chamber of the Transwells (0.4 μm pore size, diameter 1.12 cm, Corning, Acton, Mass.) treated with 400 μg/ml collagen type IV (Sigma, St. Louis, Mo.) and 100 μg/ml fibronectin (Sigma, St. Louis, Mo.) at a density of 6×10^5 cells/ml, 500 μl per well. 1 ml of growth media was placed into the bottom chamber. Both chambers were supplemented with 4 μg/ml puromycin (Clontech, Mountain View, Calif.) and the plates were incubated at 37° C., 5% CO2 overnight. The next day the media was changed with fresh complete culture media with 4 μg/ml puromycin and the cells were placed back into the incubator overnight. The next day the media was changed with complete culture media and again two days after. Cultures were monitored by eye till they reached 100% confluence, ˜6-7 days after seeding. The developed in vitro BBB model had high transendothelial electrical resistance (>100 ohms-cm^2), measured using Millicell-ERS (Millipore, Billercia, Mass.) and very low Na-Fluorescein permeability (about 1-5×10^−6 cm/s).
25 μg of purified peptide-AP fusions were added to the top chamber of the in vitro BBB model and transcytosed peptide-AP fusions were detected at 15 and 30 minute timepoints in the bottom chamber using ELISA. Briefly, 75 μl of each sample was transferred to plates coated with 5 μg/ml mouse monoclonal anti-bacterial AP antibody (Sigma, St. Louis, Mo.). The plate was incubated for 1 hr, washed, the signal was developed with Attophos Substrate (Roche, Indianapolis, Ind.) according to manufacturer's recommendation, and read using a Molecular Devices M5 plate reader with 440 nm excitation and 550 nm emission.

sIGF1R [2] = biological target: T1, sIGF1R (Homo sapiens, UniProt P08069); assay: ELISA relative binding affinity of PG-peptide fusions for sIGF1R; settings: for EC50: PG-peptide fusion, ELISA on 2 μg/ml coated sIGF1R, one site binding equation
T1 construct: hexahistidine (C); purchased R&D Systems
Source text: The identified IFG1R binding peptides were cloned in-frame to the C-terminus of the protein G IgG domain (PG) in a modified pET17b vector (EMD Chemicals, Gibbstown, N.J.) having a ligation independent cloning site (LIC) to generate PG-peptide fusions. The IgG binding domain of protein G is stable and thus enabled easy purification of the fusion protein from bacterial lysates. The amino acid sequence of the protein G IgG domain used is shown in SEQ ID NO: 31. The PG-peptide fusions were expressed in bacteria upon 1 mM IPTG induction and purified using IgG Sepharose beads (GE Healthcare Life Sciences, Piscataway, N.J.) from the bacterial lysates cleared by centrifugation at 16,000 g, 4° C. for 20 min.
(§1) Relative binding affinities of the PG-peptide fusions for sIGF1R were measured using ELISA. The Kds were determined using GraphPad Prism 4 software with a one site binding equation. 100 μl of 2 μg/ml sIGF1R(R&D Systems, Minneapolis, Minn.) in Dulbecco's Phosphate Buffer Saline (DPBS (−/−)) was coated onto a 96 well Black Maxisorp plates (Nunc, Rochester, N.Y.) overnight at 4° C. The plates were washed with TBST and the wells blocked with 200 μl/well Starting Block T20 (TBS) (Pierce, Rockford, Ill.) for 1 hr, room temperature with 300 rpm shaking. 75 μl/well of purified, serially diluted PG-peptide fusions, starting concentration 40 μM, was added into the wells and incubated for 1 h, room temperature with 300 rpm mixing; the volume was brought up to 100 μl with Starting Block T20. The plates were washed 3× with TBST and then probed with 100 μl/well Peroxidase labeled-Rabbit antibody (1:5000) (Rockland, Gilbertsville, Pa.), washed, and the signal was detected using 100 μl/well POD substrate (Roche, Indianapolis, Ind.). Chemiluminescence was detected using a Molecular Devices M5 plate reader.

sIGF1R [3] = biological target: T1, sIGF1R; assay: competition ELISA of PG-peptide fusions with IGF-1 on sIGF1R; format: binding; settings: PG-peptide fusion, IGF-1 400 nM final
Method: as §1
For competition assays, insulin-like growth factor 1 (IGF-1) (R&D Systems, Minneapolis, Minn.) was added to the Starting Block T20 used to bring the volume up to 100 μl at a concentration of 400 nM final.

insulin receptor = insulin receptor (Homo sapiens, UniProt P06213); assay: phage lysate binding to insulin receptor (cross-reactivity)
Method: Total of 384 individual phage lysates from the panning were tested for binding specificity towards sIGF1R in a solid phase phage ELISA. Briefly, 100 μl/well of 5 μg/ml sIGF1R (R&D Systems, Minneapolis, Minn.) was bound to Black Maxisorp Plates (Nunc, Rochester, N.Y.), 25 μl of phage lysate added, and the reaction was detected using anti-M13-HRP antibody (EMD Biosciences, Gibbstown, N.J.) and POD substrate (Roche, Indianapolis, Ind.), and the signal detected using a TEKAN plate reader. […] Positive lysates were defined as clones with a sIGF1R specific signal that was three fold above the background of the negative control. A total of 13 clones with unique peptide sequences were obtained with confirmed binding to the sIGF1R (Table 1). From these 13 clones, 3 (clones 5, 13 and 16) cross-reacted with the insulin receptor.

EC50 (sIGF1R [2]) | Competed by IGF-1 (sIGF1R [3]) | cross-reaction with the insulin receptor (insulin receptor) | binding curve shape (binding profile) (sIGF1R [2]; PG-peptide fusion on sIGF1R) | Substance | Transcytosis [1]
3500 nM | – | – | – | 9 (FTCAVYSLSELDCRD; IGF1R binding peptide from pIX library) [Clone 9] | no
> 50000 nM | yes | cross-reacted | – | 13 (WHCTPLTQIADPGSIIHILECTV; IGF1R binding peptide from pIX library) [Clone 13] | no
1800 nM | – | – | – | 12 (SNCPPLDMRLTELCVM; IGF1R binding peptide from pIX library) [Clone 12] | yes
1200 nM | yes | – | – | 11 (HTCFYPTLMPPELCFD; IGF1R binding peptide from pIX library) [Clone 11] | no
1000 nM | – | – | – | 6 (AECEWPWLTLELCQS; IGF1R binding peptide from pIX library) [Clone 6] | yes
1600 nM | – | – | – | 8 (PVCPSFCYDQYVCPT; IGF1R binding peptide from pIX library) [Clone 8] | yes
2600 nM | – | – | – | 15 (MTCAWHTLHTDPGLTPQLTLPCIY; IGF1R binding peptide from pIX library) [Clone 15] | –
– | yes | – | bellshaped | 17 (DDIDEFLHQLHNLVNNVH; IGF1R binding peptide from pIX library) [Clone 17] | no
1800 nM | – | – | – | 7 (PFCYSGGPLPYPCTY; IGF1R binding peptide from pIX library) [Clone 7] | –
750 nM | – | cross-reacted | – | 5 (TGCDFPELCRGCHP; IGF1R binding peptide from pIX library) [Clone 5] | yes
850 nM | yes | – | – | 14 (VECDTPSITFSPGLEALFWNTCSP; IGF1R binding peptide from pIX library) [Clone 14] | no
4300 nM | – | – | – | 10 (LSCYDPTLRTLYCHV; IGF1R binding peptide from pIX library) [Clone 10] | –
8200 nM | yes | cross-reacted | – | 16 (AGCPSPMPPVDPGFYSAIVQLCRE; IGF1R binding peptide from pIX library) [Clone 16] | yes
